± gives the uncertainty stated by the source.
B1: Retinoic acid receptor beta, residues 85 to 161; numbered along this chain, P10826 (parent)
chain: YKPCFVCQDKSSGYHYGVSACEGCKGFFRRSIQKNMIYTCHRDKNCVINKVTRNRCQYCRLQKCFEVGMSKESVRND

Variants of: B1
Assay: abundance fitness (aPCA) (normalised: wild type 0, dead -1); higher = more abundant; growth selection in yeast, the domain comes from the species named
Conditions: Homo sapiens

Variant	abundance fitness
YKPCFVCQDKSSGYHYGVSACEGCKGFFRRSIQKNMIYTCHRDKNFVINKVTRNRCQYCRLQKCFEVGMSKESVRND [C46F]	-0.988 ± 0.23
YKPCFVCQDKSSGYHYGVSACEGCKGFFRRSIQKNMIYTCHRDKNSVINKVTRNRCQYCRLQKCFEVGMSKESVRND [C46S]	-0.562 ± 0.074
KKPCFVCQDKSSGYHYGVSACEGCKGFFRRSIQKNMIYTCHRDKNCVINKVTRNRCQYCRLQKCFEVGMSKESVRND [Y1K]	0.193 ± 0.13
YKPCFVCQDKSSGYHYGVSACEGCKGFFRRSIQKNMIYTCHRDKNCVINKVTRNRCQYCRLQKCFEVGMDKESVRND [S70D]	-0.085 ± 0.067
YKPCFVCQDKSSGYHYGVSACEGCKGFFRSSIQKNMIYTCHRDKNCVINKVTRNRCQYCRLQKCFEVGMSKESVRND [R30S]	-0.644 ± 0.095
YKPCFVCQDKSSGYHYGVSACEGCKGFFRRVIQKNMIYTCHRDKNCVINKVTRNRCQYCRLQKCFEVGMSKESVRND [S31V]	-0.341 ± 0.054
YKPCFVCQDKSSGYHYGVSACEGCKGFFRRIIQKNMIYTCHRDKNCVINKVTRNRCQYCRLQKCFEVGMSKESVRND [S31I]	-0.413 ± 0.17
YKPCFVCQDKSSGYHYGVSACEGCKGFFRRSIQKNMPYTCHRDKNCVINKVTRNRCQYCRLQKCFEVGMSKESVRND [I37P]	-0.118 ± 0.084
YKPCFVCQDKSSGYHYGVSACEGCKGFFRRSIAKNMIYTCHRDKNCVINKVTRNRCQYCRLQKCFEVGMSKESVRND [Q33A]	0.105 ± 0.043
YKPCFVCQDKSSGYHYGVSACEGCKGFFRRSIQKNMIYTCHRDKRCVINKVTRNRCQYCRLQKCFEVGMSKESVRND [N45R]	0.059 ± 0.054
YKPCLVCQDKSSGYHYGVSACEGCKGFFRRSIQKNMIYTCHRDKNCVINKVTRNRCQYCRLQKCFEVGMSKESVRND [F5L]	-0.076 ± 0.045
YKPCSVCQDKSSGYHYGVSACEGCKGFFRRSIQKNMIYTCHRDKNCVINKVTRNRCQYCRLQKCFEVGMSKESVRND [F5S]	-0.053 ± 0.047
YKPCFVCQDKSSGYHYGVSACEGCKGFFRRSIQKNMIYTCHRDKNCVINKVTRNRCQYCRLQKCFEVGMSMESVRND [K71M]	-0.104 ± 0.054
YKPCFVCQDKSSGYHYGVSACEGCKGFFRRSIQKNMIYTCHRDKNCVINKVTRNRLQYCRLQKCFEVGMSKESVRND [C56L]	-0.907 ± 0.14
YKPCFVCQDKSSGYHYGVSACEGCKGFFRRSIQKNMIYTCHRDKNCVINKVTRNRIQYCRLQKCFEVGMSKESVRND [C56I]	-1.05 ± 0.42
YKPCFVCQDKSSGYHYGVSACEGCKGFFRRSIQKNMIYTCHRDKNCVINKVTRNRCQYCRLQKCFEAGMSKESVRND [V67A]	-0.012 ± 0.043
YKPCFVCQDKSSGYHYGVSACEGCKGFFRRSIQKNMIYTCHRDKNCVINKVTRNRCQYCRLQKCFEFGMSKESVRND [V67F]	-0.054 ± 0.088
YKPCFVCQKKSSGYHYGVSACEGCKGFFRRSIQKNMIYTCHRDKNCVINKVTRNRCQYCRLQKCFEVGMSKESVRND [D9K]	-0.722 ± 0.17
YKPCFVCQQKSSGYHYGVSACEGCKGFFRRSIQKNMIYTCHRDKNCVINKVTRNRCQYCRLQKCFEVGMSKESVRND [D9Q]	-0.6 ± 0.15
YKPCFVCQDKSSGYHYGVSACEGCKGFFRRSIQKNMIYTCHRDKNCVINKVTRDRCQYCRLQKCFEVGMSKESVRND [N54D]	0.345 ± 0.059
YKPCFVCQDKSSGYHYGVSACEGCKGFFRRSIQKNMIYTCHRDKNCVINKVTRTRCQYCRLQKCFEVGMSKESVRND [N54T]	0.185 ± 0.05
YKPCFVCQDKSSGYHYGVSACEGCKGFFRRSIQKNSIYTCHRDKNCVINKVTRNRCQYCRLQKCFEVGMSKESVRND [M36S]	-0.002 ± 0.053
YKPCFVCQDKSSGYHYGVSACEGCKGFFRRSIQKNNIYTCHRDKNCVINKVTRNRCQYCRLQKCFEVGMSKESVRND [M36N]	0.009 ± 0.11
YKPCFVCQDKSSGYHYGVSACEGCKGFFRRSIQKNRIYTCHRDKNCVINKVTRNRCQYCRLQKCFEVGMSKESVRND [M36R]	-0.064 ± 0.036

Variant	abundance fitness
YKPCFVCQDKSSGYHYGVSACEGCKGFFRRSIQKNMIYTCHRDKNCVINKVTRNRCQYCRLQKCFEVGMSKEQVRND [S73Q]	-0.043 ± 0.057
YKPCFVCQDKSSGYHYGVSACEGCKGFFRRSIQKNMIYTCHRDKNCVINKVTRNRCQYCRLQKCFEVGMSKEAVRND [S73A]	0.1 ± 0.043
YKPCFVCQDKSSGYHYGVSAAEGCKGFFRRSIQKNMIYTCHRDKNCVINKVTRNRCQYCRLQKCFEVGMSKESVRND [C21A]	-0.809 ± 0.12
YKPCFVCADKSSGYHYGVSACEGCKGFFRRSIQKNMIYTCHRDKNCVINKVTRNRCQYCRLQKCFEVGMSKESVRND [Q8A]	0.022 ± 0.045
YKPCFVCQDKSSGYHYGVSACEGCKGFFRRSIQKNMIYTCHRDKNCVINKVTRNRCQQCRLQKCFEVGMSKESVRND [Y58Q]	-0.259 ± 0.084
YKPCFVCQDKSLGYHYGVSACEGCKGFFRRSIQKNMIYTCHRDKNCVINKVTRNRCQYCRLQKCFEVGMSKESVRND [S12L]	-0.216 ± 0.059
YKPCFVCQDKSNGYHYGVSACEGCKGFFRRSIQKNMIYTCHRDKNCVINKVTRNRCQYCRLQKCFEVGMSKESVRND [S12N]	0.023 ± 0.084
YKPCFKCQDKSSGYHYGVSACEGCKGFFRRSIQKNMIYTCHRDKNCVINKVTRNRCQYCRLQKCFEVGMSKESVRND [V6K]	-0.82 ± 0.15
YKPCFSCQDKSSGYHYGVSACEGCKGFFRRSIQKNMIYTCHRDKNCVINKVTRNRCQYCRLQKCFEVGMSKESVRND [V6S]	-0.907 ± 0.14
YKPCFVCQDKSSGYHYGVSACEGCKGFTRRSIQKNMIYTCHRDKNCVINKVTRNRCQYCRLQKCFEVGMSKESVRND [F28T]	-0.604 ± 0.11
YKPCFVCQDKSSGYHYGVSACEGCKGFHRRSIQKNMIYTCHRDKNCVINKVTRNRCQYCRLQKCFEVGMSKESVRND [F28H]	-0.338 ± 0.17
YKPCFVCQDKSSGYHYGVSACEGCKGFFRRSIQKNMIMTCHRDKNCVINKVTRNRCQYCRLQKCFEVGMSKESVRND [Y38M]	-0.466 ± 0.088
YKPCFVCQDKSSGYHYGVSACEGCKLFFRRSIQKNMIYTCHRDKNCVINKVTRNRCQYCRLQKCFEVGMSKESVRND [G26L]	-0.265 ± 0.049
YKPCFVCQDKSSGYHYGVSACEGCKKFFRRSIQKNMIYTCHRDKNCVINKVTRNRCQYCRLQKCFEVGMSKESVRND [G26K]	-0.49 ± 0.1
YKPCFVCQDKSSGYHYGVSACEGCKGFFRRSIQKNMIYTCHRDKNCVINKVTRNRCQYCRLQKPFEVGMSKESVRND [C64P]	-0.689 ± 0.18
YKPCFVCQDKHSGYHYGVSACEGCKGFFRRSIQKNMIYTCHRDKNCVINKVTRNRCQYCRLQKCFEVGMSKESVRND [S11H]	-0.525 ± 0.22
YKPCFVCQDKVSGYHYGVSACEGCKGFFRRSIQKNMIYTCHRDKNCVINKVTRNRCQYCRLQKCFEVGMSKESVRND [S11V]	-0.221 ± 0.05
YKPCFVCQDKSSGYHYGVSACEGCKGFFRRSIQKNMIYTCHRDKNCVINKVTRNRCQYCRLQKCFSVGMSKESVRND [E66S]	-0.078 ± 0.047
YKPCFVCQDKSSGYHYGVSACEGCKGFFRRSIQKNMIYTCHRDKNCVINKVTRNRCQYCRLQKCFNVGMSKESVRND [E66N]	-0.028 ± 0.11
YKPCFVCQDKSSGYHYGVSACEGCKGFFRRSIQKNMIYTCHRDKNCVINKVTDNRCQYCRLQKCFEVGMSKESVRND [R53D]	-0.018 ± 0.061
YKPCFVCQDKSSGYHYGVSACEGCKGFFRRSIQKNMIYTCHRDKNCVINKVTVNRCQYCRLQKCFEVGMSKESVRND [R53V]	0.211 ± 0.035
YKPCFVCQDKSSGYHYGVSACEGCKGFFRRSIQKNMIYTCHRDKNCVINKVTNNRCQYCRLQKCFEVGMSKESVRND [R53N]	0.123 ± 0.082
YKPCFVCQDKSSGYHYGVSACEGCKGFFRRSIQKNMIYTCHRDKNCVINKVTRNRCQYCRLQACFEVGMSKESVRND [K63A]	-0.306 ± 0.06
YKPCFVCQDKSSGYHYGVSACEGCKGFFRRSIQKNMIYTCHRDKNCVINKVTRNRCQYCRLQKCFEVGDSKESVRND [M69D]	-0.498 ± 0.26

Variant	abundance fitness
YKPCFVCQDKSSGYHYGVSACEGCKGFFRRSIQKNMIYTCHRDKNCVINKVTRNRCQYCRLQKCFEVGPSKESVRND [M69P]	-0.917 ± 0.39
YKPCFVCQDKSSGYHYGVSACEGCKGFFRRSIQKNMIYTCHRDKNCVINKVTRNRCQYCRLQKCFEVGMSKESVTND [R75T]	-0.02 ± 0.06
YKDCFVCQDKSSGYHYGVSACEGCKGFFRRSIQKNMIYTCHRDKNCVINKVTRNRCQYCRLQKCFEVGMSKESVRND [P3D]	0.225 ± 0.089
YKPCFVCQDKSSGYHYGVSACEGCKGFFRRSIQKNMIYTCHRDKNCVINKPTRNRCQYCRLQKCFEVGMSKESVRND [V51P]	-0.218 ± 0.069
YKPCFVCQDKSSGYHYGVSACEGCKGFFRRSIQKNMIYTCHRDKNCVINKVTRNRCQYCQLQKCFEVGMSKESVRND [R60Q]	-0.003 ± 0.052
YKPCFVCQDKSSGYHYGVSACEGCKGFFRRSIQKNMIYTCHRDKNCVINKVTRNRCQYCYLQKCFEVGMSKESVRND [R60Y]	-0.002 ± 0.062
YKPCFVCQDKSSGYHYGVSACEGCKGFFRRSIQKNMIYTCHRDKNCVINKVTRNRCQYCRLTKCFEVGMSKESVRND [Q62T]	-0.004 ± 0.061
YKPCFVCQDKSSGTHYGVSACEGCKGFFRRSIQKNMIYTCHRDKNCVINKVTRNRCQYCRLQKCFEVGMSKESVRND [Y14T]	0.042 ± 0.053
YKPCFVCQDKSSGVHYGVSACEGCKGFFRRSIQKNMIYTCHRDKNCVINKVTRNRCQYCRLQKCFEVGMSKESVRND [Y14V]	0.092 ± 0.048
YKPCFVCQDKSSGYAYGVSACEGCKGFFRRSIQKNMIYTCHRDKNCVINKVTRNRCQYCRLQKCFEVGMSKESVRND [H15A]	0.033 ± 0.054
YKPCFVCQDKSSGYHYGVSACEGCKGFFRRSIQKNMIYTCHRKKNCVINKVTRNRCQYCRLQKCFEVGMSKESVRND [D43K]	-0.001 ± 0.05
YKPCFVCQDKSSGYHYGVSACEGCKGFFRRSIQKNMIYTCHRNKNCVINKVTRNRCQYCRLQKCFEVGMSKESVRND [D43N]	-0.072 ± 0.073
YKPCFVCQDKSSGYHYGVSACVGCKGFFRRSIQKNMIYTCHRDKNCVINKVTRNRCQYCRLQKCFEVGMSKESVRND [E22V]	-0.203 ± 0.044
YKPCFVCQDKSSGYHYGVSACSGCKGFFRRSIQKNMIYTCHRDKNCVINKVTRNRCQYCRLQKCFEVGMSKESVRND [E22S]	-0.239 ± 0.065
YKPCFVCQDKSSGYHYGVSACEGCKGFFRRSIQKNMIYNCHRDKNCVINKVTRNRCQYCRLQKCFEVGMSKESVRND [T39N]	0.003 ± 0.056
YKPCFVCQDKSSGYHYGVSACEGCKGFFRRSIQKNMIYTCPRDKNCVINKVTRNRCQYCRLQKCFEVGMSKESVRND [H41P]	-0.044 ± 0.055
YKPCFVCQDKSSGYHYGVSACEGCKGFFRRSWQKNMIYTCHRDKNCVINKVTRNRCQYCRLQKCFEVGMSKESVRND [I32W]	-0.432 ± 0.083
YKPCFVCQDKSSMYHYGVSACEGCKGFFRRSIQKNMIYTCHRDKNCVINKVTRNRCQYCRLQKCFEVGMSKESVRND [G13M]	-0.067 ± 0.1
YKPCFVCQDKSSRYHYGVSACEGCKGFFRRSIQKNMIYTCHRDKNCVINKVTRNRCQYCRLQKCFEVGMSKESVRND [G13R]	-0.289 ± 0.11
YKPCFVCQDKSSGYHYGVSACEGCKGFFRRSIQKNMIYTCHRDKNCVINKVTRNRCQYCRLQKCFEVGMSKESHRND [V74H]	-0.13 ± 0.15
YKPCFVCQDKSSGYHYGVSACEGCKGFFRRSIQKNMIYTCHRDKNCVMNKVTRNRCQYCRLQKCFEVGMSKESVRND [I48M]	0.042 ± 0.059
YKPCFVCQDKSSGYHLGVSACEGCKGFFRRSIQKNMIYTCHRDKNCVINKVTRNRCQYCRLQKCFEVGMSKESVRND [Y16L]	-0.045 ± 0.056
YKPCFVCQDKSSGYHYGVSACEGCKGFFRRSIQKNMIYTCHRDKNCVINKVTRNRCWYCRLQKCFEVGMSKESVRND [Q57W]	0.104 ± 0.038

From the Human Domainome abundance scans (Beltran et al. 2025)
